According to patent publication US8623997B2, “Variant Hhip1 protein and methods and uses thereof” (Curis, Inc., priority 2008, dated 2014):
Substitutions are numbered along the chain they refer to. Names and notes keep the numbering of the source. Each block holds one molecule with its values, some of them ahead of it.

What was measured:
[1] = system: Shh signaling; assay: Gli-luciferase co-culture signaling assay (S12 fibroblasts overlaid with Shh-producing HT29 cells); type: cell-based, murine S12 fibroblasts / human HT29 cells; details: for IC50: 24 hrs, read-out: IC50 inhibition of Shh signaling
From the text: Due to the lack of both N- and C-terminal lipid modifications of Shh and the absence of other cellular components, the in vitro assays may not fully recapitulate Hip-Shh interactions occurring in a cellular environment. Therefore, a co-culture assay consisting of murine S12 fibroblasts stably transfected with a Gli luciferase reporter gene and (Frank-Kamenetsky et al. (2002) J. Biol. 1:10) and human colorectal adenocarcinoma HT29 cells that secrete fully lipid-modified Shh (Yauch et al. (2008) Nature 455:406) was used to determine which extracellular domains of Hhip1β12 mediate inhibition of Shh signaling in mammalian cells.
Briefly, S12 cells, which are 10T1/2 fibroblasts stably transfected with 8× Gli-binding sites fused to a luciferase reporter (Frank-Kamenetsky et al. (2002) J. Biol. 1:10), were plated at 10,000 cells/well of a white-walled clear bottomed 96-well plate (Costar 3610) for […] in regular growth medium (HG-DMEM, 10% FBS, 1% glutamine). After 24 h, the media was removed and Shh-producing HT29 cells at 20,000 cells/well were plated and the co-culture was grown in regular media. After 24 h, the media was changed to 0.5% serum HG-DMEM±Hhip1β12 fragments and further incubated for 24 hrs to stimulate signaling. Gli-luciferase activity was measured using a HTS-Steady Lite luciferase detection kit (Perkin Elmer); multiple assays were carried out, each in triplicate. Data were fit to a 4-parameter sigmoidal equation, from which the IC50 was derived using Kaleidagraph (Synergy Software).

[2] = biological target: T1, biotinylated-ShhN-Cys (Homo sapiens, UniProt Q15465); assay: Bio-layer interferometry (Octet) binding kinetics of Hhip1β12 variants to Shh; details: for Shh binding of Hhip1β12 mutants (in words): bio-layer interferometry, compared with WT Hhip1β12; for Kd / koff × 10^−4 / kon × 10^3: 1:1 binding model, n.d stands for no binding detected
T1 construct: ShhN-Cys (residues 24-197); His6 (N); made in house; host or cells: E. coli Rosetta 2
Description: The binding kinetics of the Hhip1β12 fragments as well as Hhip1β12 mutants were measured by bio-layer interferometry in the presence or absence of 10 mM EDTA on an Octet (Fortébio). Streptavidin high binding FA biosensors were loaded with biotinylated-ShhN-Cys in kinetic buffer (Fortébio). The loaded biosensors were washed and transferred to wells containing Hhip1β12 protein at concentrations of 1.2, 1.0, 0.8 and 0.6 μM in kinetic buffer. Hhip1β12 association and dissociation was measured for 30 and 20 min, respectively. Kinetic parameters (kon and koff) and affinities (KD) were calculated from a non-linear fit of the data based on a 1:1 binding model between Hhip1β12 and Shh using the Octet software. Multiple independent measurements were performed.
In order to assess the contribution of residues in the Hhip1 L1, L2 and L3 loops for binding to Shh, a series of single alanine Hipβ12 mutants were made using the QuickChange DNA mutagenesis kit (Stratagene) using the manufacturer's protocol, and their affinity for Shh was measured by bio-layer interferometry (as described in Example 2B). These mutations included Hhip1β12 mutants 1312A, E381A, M382A, D383A, D378A, T418A, Q420A, E380A, D387A and ΔL2.

[3] = system: Ptch1; assay: FACS assay of Shh649 binding to Ptch1 expressing 293 cells and its competition; design: species or system human
Description: Shh649 (1 nM) preincubated with indicated proteins was bound to Ptch1 expressing cells, washed and analyzed by FACS. The average mean Shh649 fluorescence intensity (MFI) of two independent dilution series was plotted versus inhibitor concentration, with error bars denoting standard deviations. […] Assays were carried out using octylated Ihh wildtype and T154I proteins. Concentration dependent relative luciferase units (RLU) are plotted as the average of four independent dilution series±standard deviation and normalized to the maximal Ihh WT stimulation on each plate as 100%. […] The data is representative of three independent experiments.
Shh is in the same orientation as in the Hhip-Shh complex in Panel A. Zn^2+ and Ca^2+ cations are shown. […] Surface representation of Shh with residues within 4.5 Å of Hhip (shaded gray) and Cdon (hatched areas). Area within dotted boarder indicates the boundaries of the Cdon footprint, which overlaps the Hhip binding surface. […] Shh histidine residues are shown as sticks with nitrogen atoms shaded dark. The Hhip L2 loop is shown in transparent surface and Zn^2+ cation is shown. Histidine 35 is not shown since the ordered portion of the Shh structure begins at L40. […] The spectral region of the histidine side chains is shown. […] The average mean Shh649 fluorescence intensity (MFI) of two independent dilution series was plotted versus protein concentration, with error bars denoting standard deviations. Ctrl refers to the His-6 (SEQ ID NO: 87) tagged HGF β protein. […] Shh649 (0.33 nM) was preincubated with 56 nM (170-fold excess) of Hhipβ12 wildtype or L2 mutant proteins, 5E1 or controls then bound to Ptch1 cells (black) or 293 cells (gray), washed and analyzed by FACS. Shh649 binding to Ptch1 cells in the absence of inhibitors was normalized to 100% and the data expressed as a percentage of this signal (average of two independent duplicates with standard deviations). Ctrl and CtrlFc refer to HGF β and the IgG1 isotype control Trastuzumab, respectively. The data is representative of at least three independent experiments.
Shh649, conjugated to Dylight 649 (Pierce) at its C-terminus (vide supra), was incubated at 0.33 or 1 nM for 1 h on ice with various Hhip or control proteins prior to incubation with HEK-293 cells (293) or 293 cells expressing full length human Patched-1 (Ptch1-293 clone 10) (Carpenter D. et al. (1998) Proc. Natl. Acad. Sci. USA 95:13630-13634) in FACS buffer (3% FBS in PBS) for 1 h on ice. After washing 3 times in FACS buffer, live cells (sorted by propidium iodide exclusion) were analyzed by flow cytometry in the APC channel using a FACSCalibur (BD Biosciences). Control proteins included His6-Shh, His6-Ihh, HGF β-His639, Trastuzumab (Genentech, Inc.) as a human IgG1 isotype control for Hhip1β12-Fc, and mIgG1 (Molecular Probes Z25105) as a murine Mab control for anti-Shh 5E1 Mab34.

B1: D383A: L2 loop single alanine variant made in the Hhip1β12 construct (protein)
chain: SNYLDQMEEYDKVEEISRKHKHNCFCIQEVVSGLRQPVGALHSGDGSQRLFILEKEGYVKILTPEGEIFKEPYLDIHKLVQSGIKGGDERGLLSLAFHPNYKKNGKLYVSYTTNQERWAIGPHDHILRVVEYTVSRKNPHQVDLRTARVFLEVAELHRKHLGGQLLFGPDGFLYIILGDGMITLDDMEEMAGLSDFTGSVLRLDVDTDMCNVPYSIPRSNPHFNSTNQPPEVFAHGLHDPGRCAVDRHPTDININLTILCSDSNGKNRSSARILQIIKGKDYESEPSLLEFKPFSNGPLVGGFVYRGCQSERLYGSYVFGDRNGNFLTLQQSPVTKQWQEKPLCLGTSGSCRGYFSGHILGFGEDELGEVYILSSSKSMTQTHNGKLYKIVDPKRPLMPEECRATVQPAQTLTSECSRLCRNGYCTPTGKCCCSPGWEGDFCRTAKCEPACRHGGVCVRPNKCLCKKGYLGPQCEHHHHHH
inhibitory activity (in words) ([1]; Gli-luciferase co-culture): retained activity | maximal inhibition ([1]; at saturating conditions): ~85% | Shh binding of Hhip1β12 mutants (in words) [2]: inability

B2: I312A: L1 loop single alanine variant made in the Hhip1β12 construct (protein)
chain: B1 chain with I120A, A191D
inhibitory activity (in words) ([1]; Gli-luciferase co-culture): essentially identical to wildtype Hhip1β12 | Kd [2]: 320 nM | koff × 10^−4 [2]: 4.8 × 10^−4 [s^−1] | kon × 10^3 [2]: 1.5 × 10^3 [M^−1 × s^−1] | Shh binding of Hhip1β12 mutants (in words) ([2]; listed as 1312A): little effect on Shh

B3: Hhip1ECD: Hhip1 extracellular domain construct (SEQ ID NO:11), residues 20-667 of SEQ ID NO:2 (protein, listed as Homo sapiens)
chain: SNYLDQMEEYDKVEEISRKHKHNCFCIQEVVSGLRQPVGALHSGDGSQRLFILEKEGYVKILTPEGEIFKEPYLDIHKLVQSGIKGGDERGLLSLAFHPNYKKNGKLYVSYTTNQERWAIGPHDHILRVVEYTVSRKNPHQVDLRTARVFLEVAELHRKHLGGQLLFGPDGFLYIILGDGMITLDDMEEMDGLSDFTGSVLRLDVDTDMCNVPYSIPRSNPHFNSTNQPPEVFAHGLHDPGRCAVDRHPTDININLTILCSDSNGKNRSSARILQIIKGKDYESEPSLLEFKPFSNGPLVGGFVYRGCQSERLYGSYVFGDRNGNFLTLQQSPVTKQWQEKPLCLGTSGSCRGYFSGHILGFGEDELGEVYILSSSKSMTQTHNGKLYKIVDPKRPLMPEECRATVQPAQTLTSECSRLCRNGYCTPTGKCCCSPGWEGDFCRTAKCEPACRHGGVCVRPNKCLCKKGYLGPQCE
IC50 ([1]; Gli-luciferase co-culture): 5.3 nM | Kd [2]: 67 nM | koff × 10^−4 [2]: 7.9 × 10^−4 [s^−1] | kon × 10^3 [2]: 1.2 × 10^3 [M^−1 × s^−1]

Continued, in another order:

binding to Shh in the presence of EDTA ([2]; 10 mM EDTA): completely abolished | Kd [2]: 150 nM | koff × 10^−4 [2]: 2.3 × 10^−4 [s^−1] | kon × 10^3 [2]: 1.5 × 10^3 [M^−1 × s^−1]
B4: Hhip1β1: β-propeller-EGF1 construct (SEQ ID NO:13), residues 193-637 of SEQ ID NO:2 (protein, listed as Homo sapiens)
chain: SNYLDQMEEYDKVEEISRKHKHNCFCIQEVVSGLRQPVGALHSGDGSQRLFILEKEGYVKILTPEGEIFKEPYLDIHKLVQSGIKGGDERGLLSLAFHPNYKKNGKLYVSYTTNQERWAIGPHDHILRVVEYTVSRKNPHQVDLRTARVFLEVAELHRKHLGGQLLFGPDGFLYIILGDGMITLDDMEEMDGLSDFTGSVLRLDVDTDMCNVPYSIPRSNPHFNSTNQPPEVFAHGLHDPGRCAVDRHPTDININLTILCSDSNGKNRSSARILQIIKGKDYESEPSLLEFKPFSNGPLVGGFVYRGCQSERLYGSYVFGDRNGNFLTLQQSPVTKQWQEKPLCLGTSGSCRGYFSGHILGFGEDELGEVYILSSSKSMTQTHNGKLYKIVDPKRPLMPEECRATVQPAQTLTSECSRLCRNGYCTPTGKCCCSPGWEGDFCRTA
IC50 fold higher than Hhip1ECD ([1]; Gli-luciferase co-culture): about 4 fold | IC50 ([1]; Gli-luciferase co-culture): 20.3 nM

Shh binding of Hhip1β12 mutants (in words) [2]: abrogated binding to Shh
B5: Hhip1ΔL2: Hhip1β12 mutant with deletion of the entire L2 loop (protein)
chain: SNYLDQMEEYDKVEEISRKHKHNCFCIQEVVSGLRQPVGALHSGDGSQRLFILEKEGYVKILTPEGEIFKEPYLDIHKLVQSGIKGGDERGLLSLAFHPNYKKNGKLYVSYTTNQERWAIGPHDHILRVVEYTVSRKNPHQVDLRTARVFLEVAELHRKHLGGQLLFGPDGFLYIILGDGMITTGSVLRLDVDTDMCNVPYSIPRSNPHFNSTNQPPEVFAHGLHDPGRCAVDRHPTDININLTILCSDSNGKNRSSARILQIIKGKDYESEPSLLEFKPFSNGPLVGGFVYRGCQSERLYGSYVFGDRNGNFLTLQQSPVTKQWQEKPLCLGTSGSCRGYFSGHILGFGEDELGEVYILSSSKSMTQTHNGKLYKIVDPKRPLMPEECRATVQPAQTLTSECSRLCRNGYCTPTGKCCCSPGWEGDFCRTAKCEPACRHGGVCVRPNKCLCKKGYLGPQCEHHHHHH
inhibitory activity (in words) ([1]; Gli-luciferase co-culture): no inhibitory activity | competition of Shh649 binding to Ptch1 cells (in words) [3]: no inhibition
